The source of these data is IntAct's records for PubMed 19503079.

Assay [1] concerns the target T1, atxr6_arath ATXR6 (UniProt Q9FNE9).
T1 sequence: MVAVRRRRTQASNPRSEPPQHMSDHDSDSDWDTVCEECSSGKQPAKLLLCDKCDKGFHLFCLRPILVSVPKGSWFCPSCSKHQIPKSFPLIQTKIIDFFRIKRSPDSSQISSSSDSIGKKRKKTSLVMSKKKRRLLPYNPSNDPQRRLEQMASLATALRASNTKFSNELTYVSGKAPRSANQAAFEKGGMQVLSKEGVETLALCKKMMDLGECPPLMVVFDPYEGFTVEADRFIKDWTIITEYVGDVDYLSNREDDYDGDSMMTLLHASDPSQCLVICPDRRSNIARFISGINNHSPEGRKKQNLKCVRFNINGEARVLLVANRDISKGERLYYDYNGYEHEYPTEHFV

Assay [2] addresses T2, atxr5_arath ATXR5 (UniProt Q8VZJ1).
T2 sequence: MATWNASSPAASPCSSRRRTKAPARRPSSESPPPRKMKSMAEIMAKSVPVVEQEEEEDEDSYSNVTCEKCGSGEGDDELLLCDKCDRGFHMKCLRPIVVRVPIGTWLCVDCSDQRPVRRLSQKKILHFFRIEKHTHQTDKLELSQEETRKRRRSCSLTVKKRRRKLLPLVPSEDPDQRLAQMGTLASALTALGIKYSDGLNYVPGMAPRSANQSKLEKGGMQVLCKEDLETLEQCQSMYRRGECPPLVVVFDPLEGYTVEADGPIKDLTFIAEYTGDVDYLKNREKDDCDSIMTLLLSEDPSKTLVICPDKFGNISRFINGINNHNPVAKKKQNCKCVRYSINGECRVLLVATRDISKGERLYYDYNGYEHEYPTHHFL

With “Histone H3.1 (Arabidopsis thaliana (Mouse-ear cress)) (from UniProt P59226) K28A”, the “effect of a mutation on the interaction” value in assay [1] and in assay [2] was “disrupting interaction” throughout.
